Experimental data from publication PMC11123335.

Tests used:
[1] = molecular target: hexameric IgM 2G12 (human); experiment: ELISA; competition: IgM coated (2 µg/mL); serially diluted ACB or AD2 mixed with a constant sC1q (10 µg/mL final); TBS with 2% PVP, 5 mM CaCl2, 1.5 mM MgCl2; room temperature; bound sC1q detected with anti-C1q HRP; relative IC50: OD at the highest mimetic value as 100%, without mimetic as 0%, approximate values
[2] = molecular target: pentameric IgM 2G12 (UniProt P01591); experiment: as above
[3] = molecular target: pentameric IgM HB617 (UniProt P01591); experiment: as above
[4] = molecular target: pentameric IgM HB617 (UniProt P01591)

Substance | maximal inhibition of sC1q binding [1] [%] | relative IC50 [1] [µg/mL] | maximal inhibition of sC1q binding [2] [%] | relative IC50 [2] [µg/mL] | maximal inhibition of sC1q binding [3] [%] | relative IC50 [3] [µg/mL] | competitive complement activation ELISA, reduction in C4b deposition by ACB against sC1q on coated 5IgM HB617; 8-fold (20% reduction) to 16-fold (w/w) excess of ACB over sC1q [4] [%] | percent inhibition of sC1q binding at 2.5–20 µg/mL ACB (lower end) [1] [%]
C1q mimetic ACB-AD2 (ACB fused to domain 2 of human serum albumin) (from UniProt P02745 115-245; P02747 115-245; P02746 117-253; P02768 211-403) | 47 | 0.6 | 23 | 1.3 | 39 | 1.3 |  | 
C1q mimetic ACB (single-chain globular region of C1q) (from UniProt P02745 115-245; P02747 115-245; P02746 117-253) | 77 | 1.3 | 59 | 1.3 | 70 | 1.3 | 60 | 67 to 77
